According to patent publication US20060177448:

Assays:
gDHER2(DIV)-IgG = gDHER2(DIV)-IgG (UniProt P04626)

Substance: MMP-15 (MT2-MMP), construct not specified at that place
- in vitro cleavage of HER-Fc proteins (other HER receptors): MMP-15 does not clip other HER receptors

Substance: purified catalytic domain of MT2-MMP (MMP-15)
- in vitro HER2 cleavage (sheddase) assay, stained gel (gDHER2(DIV)-IgG): All MT-MMPs except MMP-14 efficiently cleave gDHER2(DIV)-IgG substrate

Substance: purified catalytic domain of MT3-MMP (MMP-16)
- in vitro HER2 cleavage (sheddase) assay, stained gel (gDHER2(DIV)-IgG): All MT-MMPs except MMP-14 efficiently cleave gDHER2(DIV)-IgG substrate

Substance: purified catalytic domain of MT4-MMP (MMP-19)
- in vitro HER2 cleavage (sheddase) assay, stained gel (gDHER2(DIV)-IgG): All MT-MMPs except MMP-14 efficiently cleave gDHER2(DIV)-IgG substrate
